Assay [1] has as its target glycoproteins from mouse endometrioid ovarian tumors nonadherent to Con A. As to the kind of experiment: lectin blot of Con A-unbound mouse tissue glycoproteins with biotinylated E-PHA, densitometry (FIG. 11A lanes 3 and 4).
Assay [2] concerns the target proteins of human ductal invasive breast carcinoma tissue (cases 10406, 10119, 11827, 2417, 2207). As to the kind of experiment: L-PHA binding to breast tumor tissue proteins, case 2207; scale not defined.
For assay [3] the target is unchanged. Description: L-PHA binding to breast tumor tissue proteins, case 10406; scale not defined.
Assay [4] shares this target. Description: L-PHA binding to breast tumor tissue proteins, case 11827; scale not defined.
For assay [5] the target is unchanged. Description: L-PHA binding to breast tumor tissue proteins, case 2417; scale not defined.
For assay [6] the target is unchanged. Description: L-PHA binding to breast tumor tissue proteins, case 10119; scale not defined.
Assay [7] addresses T1, Glucose-regulated protein 78 immunoprecipitated from human ovarian cancer tissue (human, UniProt P11021 19-654).
T1 construct: also called GRP78
As to the kind of experiment: GRP78 immunoprecipitated from ovarian cancer tissue, SDS-PAGE, lectin blot.

In assay [8] the target is T2, Thrombospondin 1 from serum and tissue of ovarian cancer patients (human, UniProt P07996 19-1170, limits assumed, core fucosylated N-linked glycans (inferred from AAL reactivity)).
T2 construct: also called THBS1; AAL-reactive THBS1
T2 sequence (P07996 19-1170 limits assumed): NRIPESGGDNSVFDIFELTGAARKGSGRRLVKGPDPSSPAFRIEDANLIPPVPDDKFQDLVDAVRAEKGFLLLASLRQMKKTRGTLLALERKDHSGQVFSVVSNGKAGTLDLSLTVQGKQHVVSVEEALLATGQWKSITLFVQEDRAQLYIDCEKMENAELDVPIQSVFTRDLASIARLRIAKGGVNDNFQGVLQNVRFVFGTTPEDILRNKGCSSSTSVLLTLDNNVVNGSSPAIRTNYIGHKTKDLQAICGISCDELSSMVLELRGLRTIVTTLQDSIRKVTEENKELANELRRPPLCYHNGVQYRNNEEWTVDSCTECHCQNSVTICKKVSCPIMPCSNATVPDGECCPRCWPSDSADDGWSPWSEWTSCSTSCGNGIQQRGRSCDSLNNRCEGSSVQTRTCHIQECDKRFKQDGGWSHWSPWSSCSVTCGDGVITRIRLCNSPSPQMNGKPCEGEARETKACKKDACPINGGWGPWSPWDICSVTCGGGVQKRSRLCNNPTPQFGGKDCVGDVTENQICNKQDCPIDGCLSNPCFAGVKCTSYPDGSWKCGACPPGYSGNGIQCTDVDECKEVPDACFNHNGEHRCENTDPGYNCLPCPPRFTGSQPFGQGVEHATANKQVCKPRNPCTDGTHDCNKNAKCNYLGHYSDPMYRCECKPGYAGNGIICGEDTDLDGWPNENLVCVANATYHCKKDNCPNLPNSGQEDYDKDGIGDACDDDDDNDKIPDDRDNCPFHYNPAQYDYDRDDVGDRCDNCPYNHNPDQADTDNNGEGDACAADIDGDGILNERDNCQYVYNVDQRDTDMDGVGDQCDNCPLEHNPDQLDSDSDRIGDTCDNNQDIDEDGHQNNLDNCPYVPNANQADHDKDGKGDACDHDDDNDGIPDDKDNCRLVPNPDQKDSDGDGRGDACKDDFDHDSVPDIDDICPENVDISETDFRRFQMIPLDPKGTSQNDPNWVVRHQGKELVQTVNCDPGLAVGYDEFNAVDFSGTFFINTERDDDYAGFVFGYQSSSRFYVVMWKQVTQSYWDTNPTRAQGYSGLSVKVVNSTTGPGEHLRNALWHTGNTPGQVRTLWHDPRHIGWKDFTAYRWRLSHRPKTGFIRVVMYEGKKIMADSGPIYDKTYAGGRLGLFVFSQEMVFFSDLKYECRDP
Description: biotinylated AAL precipitation from serum, Western blot with anti-THBS1 (FIG. 19B panel 2). For orientation: Immunoblotting shows a protein as a band on a membrane.

The target of assay [9] is glycoproteins from human endometrioid ovarian tumors (cases 711, 741, 471) nonadherent to Con A. Description: lectin blot of Con A-unbound glycoproteins, human case 471, biotinylated AAL, densitometry (FIG. 11B lane 4).

T1 sequence (P11021 19-654 limits assumed): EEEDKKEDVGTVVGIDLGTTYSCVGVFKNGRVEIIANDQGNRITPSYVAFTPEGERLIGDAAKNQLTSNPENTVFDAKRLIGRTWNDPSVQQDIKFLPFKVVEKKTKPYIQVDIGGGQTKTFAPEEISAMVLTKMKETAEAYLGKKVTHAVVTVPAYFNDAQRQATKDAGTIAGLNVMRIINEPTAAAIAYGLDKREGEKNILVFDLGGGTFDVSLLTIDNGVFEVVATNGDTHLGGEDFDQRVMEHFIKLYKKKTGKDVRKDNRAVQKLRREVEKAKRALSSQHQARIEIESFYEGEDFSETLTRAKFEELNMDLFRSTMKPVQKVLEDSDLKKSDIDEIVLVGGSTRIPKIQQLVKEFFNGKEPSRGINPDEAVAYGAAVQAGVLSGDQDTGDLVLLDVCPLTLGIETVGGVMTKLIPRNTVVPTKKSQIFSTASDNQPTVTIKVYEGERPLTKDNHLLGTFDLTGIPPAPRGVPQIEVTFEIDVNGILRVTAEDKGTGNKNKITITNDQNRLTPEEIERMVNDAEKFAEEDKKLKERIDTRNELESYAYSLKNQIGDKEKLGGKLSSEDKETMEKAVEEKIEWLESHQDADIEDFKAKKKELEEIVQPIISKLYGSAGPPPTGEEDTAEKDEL

In [1], “Phaseolus vulgaris erythroagglutinin (erythroagglutinating phytohemagglutinin), biotinylated (from UniProt P05088 22-275)” gave a level of E-PHA binding for tumor relative to normal (x relative to normal) of 0.2.
As to “Phaseolus vulgaris leukoagglutinin (leukoagglutinating phytohemagglutinin), biotinylated (from UniProt P05087 21-272)”, the L-PHA Level in assay [2] came to 9; in assay [3], 1; in [4], 4; in [5], 10; in assay [6], 4.

B1: Aleuria aurantia lectin, biotinylated (other, UniProt P18891 2-313, looked up)
chain: PTEFLYTSKIAAISWAATGGRQQRVYFQDLNGKIREAQRGGDNPWTGGSSQNVIGEAKLFSPLAAVTWKSAQGIQIRVYCVNKDNILSEFVYDGSKWITGQLGSVGVKVGSNSKLAALQWGGSESAPPNIRVYYQKSNGSGSSIHEYVWSGKWTAGASFGSTVPGTGIGATAIGPGRLRIYYQATDNKIREHCWDSNSWYVGGFSASASAGVSIAAISWGSTPNIRVYWQKGREELYEAAYGGSWNTPGQIKDASRPTPSLPDTFIAANSSGNIDISVFFQASGVSLQQWQWISGKGWSIGAVVPTGTPAGW
modifications: biotinylated
notes: Commercial fungal lectin; also called AAL
Take B1: the values for the binding result in [7] and in assay [8] were “no binding” and “binds”, respectively. For the same molecule, in assay [9], the fold increase in the level of AAL binding relative to normal came to 7 fold.

B2: Phaseolus vulgaris erythroagglutinin (erythroagglutinating phytohemagglutinin), biotinylated (other, Phaseolus vulgaris (red kidney bean), UniProt P05088 22-275, looked up)
chain: ASQTSFSFQRFNETNLILQRDATVSSKGQLRLTNVNDNGEPTLSSLGRAFYSAPIQIWDNTTGAVAASPTSFTFNIDVPNNSGPADGLAFVLLPVGSQPKDKGGLLGLFNNYKYDSNAHTVAVEFDTLYNVHWDPKPRHIGIDVNSIKSIKTTTWDFVKGENAEVLITYDSSTKLLVASLVYPSLKTSFIVSDTVDLKSVLPEWVIVGFTATTGITKGNVETNDILSWSFASKLSDGTTSEALNLANFALNQIL
modifications: biotinylated
notes: also called E-PHA; EPHA
For B2, the binding result in [7] is on record as “no binding”.

For the origin of these results see patent US20110033875A1 (UNIVERSITY OF GEORGIA RESEARCH FOUNDATION, published 2011).
